The target of experiment [1] is K. lactis Cdc13EBM (KlCdc13 residues 213-240) (Kluyveromyces lactis). The experiment in a line: ITC. On the technique in general: ITC needs no label: the signal is the heat of the interaction.
Experiment [2] addresses KlCdc13EBM-N (KlCdc13 residues 213-222) (Kluyveromyces lactis). The experiment in a line: ITC.
The target in experiment [3] is T1, S. cerevisiae Ku70/80 heterodimer (S. cerevisiae, UniProt P32807 1-602; Q04437 1-629).
T1 sequence (looked up) 1: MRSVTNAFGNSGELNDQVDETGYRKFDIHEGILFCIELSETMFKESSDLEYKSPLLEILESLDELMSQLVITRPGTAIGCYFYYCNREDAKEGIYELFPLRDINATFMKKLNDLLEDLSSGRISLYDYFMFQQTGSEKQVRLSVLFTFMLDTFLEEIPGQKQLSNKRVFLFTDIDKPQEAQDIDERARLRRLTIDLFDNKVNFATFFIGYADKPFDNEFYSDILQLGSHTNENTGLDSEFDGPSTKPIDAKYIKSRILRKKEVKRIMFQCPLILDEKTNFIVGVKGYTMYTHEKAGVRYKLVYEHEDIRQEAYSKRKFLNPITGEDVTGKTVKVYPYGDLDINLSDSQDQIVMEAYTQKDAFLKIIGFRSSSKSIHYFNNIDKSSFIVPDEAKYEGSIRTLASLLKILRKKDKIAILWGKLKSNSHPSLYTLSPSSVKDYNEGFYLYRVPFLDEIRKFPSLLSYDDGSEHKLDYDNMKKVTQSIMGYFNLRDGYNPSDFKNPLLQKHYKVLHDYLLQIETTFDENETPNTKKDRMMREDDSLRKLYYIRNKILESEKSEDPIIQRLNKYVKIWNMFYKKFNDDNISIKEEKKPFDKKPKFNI
T1 sequence (looked up) 2: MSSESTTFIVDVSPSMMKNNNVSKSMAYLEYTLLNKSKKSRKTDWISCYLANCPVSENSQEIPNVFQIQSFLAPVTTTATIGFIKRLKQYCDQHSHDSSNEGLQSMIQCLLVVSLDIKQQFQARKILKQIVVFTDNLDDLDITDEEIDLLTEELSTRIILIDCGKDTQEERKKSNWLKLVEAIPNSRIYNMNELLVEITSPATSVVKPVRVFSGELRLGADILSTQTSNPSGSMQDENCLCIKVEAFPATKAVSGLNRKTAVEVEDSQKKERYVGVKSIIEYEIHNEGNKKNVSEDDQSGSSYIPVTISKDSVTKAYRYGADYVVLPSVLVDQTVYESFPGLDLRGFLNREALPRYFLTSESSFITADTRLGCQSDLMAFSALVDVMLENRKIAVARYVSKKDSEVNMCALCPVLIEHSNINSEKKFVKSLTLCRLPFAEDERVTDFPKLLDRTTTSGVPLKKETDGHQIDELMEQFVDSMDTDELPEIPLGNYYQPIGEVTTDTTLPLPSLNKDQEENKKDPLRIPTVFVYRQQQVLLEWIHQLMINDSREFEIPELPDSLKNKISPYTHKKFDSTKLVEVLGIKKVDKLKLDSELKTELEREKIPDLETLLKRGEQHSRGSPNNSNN
The experiment in a line: pull-down.

For experiment [4], the target named is T2, S. cerevisiae Ku80vWA (residues 2-200) (S. cerevisiae, UniProt Q04437 2-200).
T2 sequence (looked up): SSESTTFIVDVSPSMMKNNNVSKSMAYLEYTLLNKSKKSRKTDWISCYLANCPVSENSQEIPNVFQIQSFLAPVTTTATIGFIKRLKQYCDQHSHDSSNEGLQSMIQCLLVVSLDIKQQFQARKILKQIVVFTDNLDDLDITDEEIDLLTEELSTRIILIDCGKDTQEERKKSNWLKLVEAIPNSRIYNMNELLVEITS
As to the kind of experiment: ITC.

B1: N-terminal domain of K. lactis Est1 (KlEst1, residues 2-600) (domain or fragment)
chain: DQKLNTDLQETFSGFQKQLQSVLETDFFRDDSLMKGAIQMIHSKIMQMLLQSLIPEGLHQDITTDTGSKKSEIRSSDAHRILDLTWKHVHYPIFKYFQNWRNRNVAEGSRPNYAGHRQLNSILQKIFPQIHKLYYSTLELIFANYNLTALIPSDTRSKLNISTKKLNDDASNVLKPEDSFSIDCVMASQRCLLYIGCSQRYKIIMEHLSDRYQQADFQKPLRYLDIASTIVPSVGETFLQRGICYTHTKNFGNAAYQFVRSSLSRLPSDAGIPNFTNLLGDPNGSLFKKLLNSLDDLKVQETIKKRIINMEIMEFYILPLIGSHIFPQTWKNNRHSDRLKHFQTLLFDKIEIRYIKNISMIFQDLILLIGSFHMYQMINGVSSNTTSSAATIMPNDKTLMNGNGSANSINNSGNSNIRSIQSETKFLEFIFKFFTHLIDKVIMKEFKNCEMFQYLAMARIMMCWIKSHKNVLKFAHRSTSFCQSMVNLTNELLSSNDLSISFEHLHRPTRDYFYEEDIMLKEFGPTKFTLSDFNDEKLLSMDNLPDRLVGKSKNKLTAKEEHSSRVQVLVYSNKKFLEKNCCGFKLDTEKKRYVHTAVK
Usually Kd stands for the concentration at which binding is half-saturated. With B1, the Kd is 5.9 µM in experiment [1] and 15.3 µM in experiment [2]. Turning to EKISNSKLLSLLRSKT (peptide, UniProt P11978 100-115, looked up) [Sir4KBM (GST pull-down)], in experiment [3], the binding result is on record as “binds”. For the molecule EKISNSKLLSLLRSKT (peptide, UniProt P11978 100-115, looked up) [S. cerevisiae Sir4KBM (residues 100-115)], in experiment [4], the Kd came out at 5.1 µM. This lies in the single-digit micromolar range.

In the case of EKISNSKLRSLLRSKT (peptide, UniProt P11978 100-115, looked up) [Sir4KBM L108R], the binding result in experiment [4] is “binds”.

Source of the values: publication PMC5839504 (Cell, 2017).
